Assay results: patent US20190233495A1 (Sanofi, published 2019)
Non-standard residues stand in square brackets, D forms with d. 1Nal = N[C@@H](Cc1cccc2ccccc12)C(=O)O; αMeK = C[C@](N)(CCCCN)C(=O)O; Nle = CCCC[C@H](N)C(=O)O; Aib = CC(C)(N)C(=O)O

B1: SEQ ID NO: 12 (peptide)
peptide: H-[Aib]EGREKVRAQI[Aib][Aib]EGMSKWSKRKK-NH2
SMILES: CC[C@H](C)[C@H](NC(=O)[C@H](CCC(N)=O)NC(=O)[C@H](C)NC(=O)[C@H](CCCNC(=N)N)NC(=O)[C@@H](NC(=O)[C@H](CCCCN)NC(=O)[C@H](CCC(=O)O)NC(=O)[C@H](CCCNC(=N)N)NC(=O)CNC(=O)[C@H](CCC(=O)O)NC(=O)C(C)(C)N)C(C)C)C(=O)NC(C)(C)C(=O)NC(C)(C)C(=O)N[C@@H](CCC(=O)O)C(=O)NCC(=O)N[C@@H](CCSC)C(=O)N[C@@H](CO)C(=O)N[C@@H](CCCCN)C(=O)N[C@@H](Cc1c[nH]c2ccccc12)C(=O)N[C@@H](CO)C(=O)N[C@@H](CCCCN)C(=O)N[C@@H](CCCNC(=N)N)C(=O)N[C@@H](CCCCN)C(=O)N[C@@H](CCCCN)C(N)=O
B2: SEQ ID NO: 13 (peptide)
peptide: Ac-LEGREKVRAQI[Aib][Aib]EG[Nle]STWSKRKK-NH2
SMILES: CCCC[C@H](NC(=O)CNC(=O)[C@H](CCC(=O)O)NC(=O)C(C)(C)NC(=O)C(C)(C)NC(=O)[C@@H](NC(=O)[C@H](CCC(N)=O)NC(=O)[C@H](C)NC(=O)[C@H](CCCNC(=N)N)NC(=O)[C@@H](NC(=O)[C@H](CCCCN)NC(=O)[C@H](CCC(=O)O)NC(=O)[C@H](CCCNC(=N)N)NC(=O)CNC(=O)[C@H](CCC(=O)O)NC(=O)[C@H](CC(C)C)NC(C)=O)C(C)C)[C@@H](C)CC)C(=O)N[C@@H](CO)C(=O)N[C@H](C(=O)N[C@@H](Cc1c[nH]c2ccccc12)C(=O)N[C@@H](CO)C(=O)N[C@@H](CCCCN)C(=O)N[C@@H](CCCNC(=N)N)C(=O)N[C@@H](CCCCN)C(=O)N[C@@H](CCCCN)C(N)=O)[C@@H](C)O
B3: SEQ ID NO: 14 (peptide)
peptide: Ac-LEGREKVRAQI[Aib][Aib]EG[Nle]SK[1Nal]SKRKK-NH2
SMILES: CCCC[C@H](NC(=O)CNC(=O)[C@H](CCC(=O)O)NC(=O)C(C)(C)NC(=O)C(C)(C)NC(=O)[C@@H](NC(=O)[C@H](CCC(N)=O)NC(=O)[C@H](C)NC(=O)[C@H](CCCNC(=N)N)NC(=O)[C@@H](NC(=O)[C@H](CCCCN)NC(=O)[C@H](CCC(=O)O)NC(=O)[C@H](CCCNC(=N)N)NC(=O)CNC(=O)[C@H](CCC(=O)O)NC(=O)[C@H](CC(C)C)NC(C)=O)C(C)C)[C@@H](C)CC)C(=O)N[C@@H](CO)C(=O)N[C@@H](CCCCN)C(=O)N[C@@H](Cc1cccc2ccccc12)C(=O)N[C@@H](CO)C(=O)N[C@@H](CCCCN)C(=O)N[C@@H](CCCNC(=N)N)C(=O)N[C@@H](CCCCN)C(=O)N[C@@H](CCCCN)C(N)=O
B4: SEQ ID NO: 15 (peptide)
peptide: Ac-LEGREKVRAQI[Aib][Aib]EG[Nle]ST[1Nal]SKRKK-NH2
SMILES: CCCC[C@H](NC(=O)CNC(=O)[C@H](CCC(=O)O)NC(=O)C(C)(C)NC(=O)C(C)(C)NC(=O)[C@@H](NC(=O)[C@H](CCC(N)=O)NC(=O)[C@H](C)NC(=O)[C@H](CCCNC(=N)N)NC(=O)[C@@H](NC(=O)[C@H](CCCCN)NC(=O)[C@H](CCC(=O)O)NC(=O)[C@H](CCCNC(=N)N)NC(=O)CNC(=O)[C@H](CCC(=O)O)NC(=O)[C@H](CC(C)C)NC(C)=O)C(C)C)[C@@H](C)CC)C(=O)N[C@@H](CO)C(=O)N[C@H](C(=O)N[C@@H](Cc1cccc2ccccc12)C(=O)N[C@@H](CO)C(=O)N[C@@H](CCCCN)C(=O)N[C@@H](CCCNC(=N)N)C(=O)N[C@@H](CCCCN)C(=O)N[C@@H](CCCCN)C(N)=O)[C@@H](C)O
B5: SEQ ID NO: 2 (peptide)
peptide: Ac-LEGREKVRAQI[Aib][Aib]EGMSKWSKRKK-NH2
SMILES: CC[C@H](C)[C@H](NC(=O)[C@H](CCC(N)=O)NC(=O)[C@H](C)NC(=O)[C@H](CCCNC(=N)N)NC(=O)[C@@H](NC(=O)[C@H](CCCCN)NC(=O)[C@H](CCC(=O)O)NC(=O)[C@H](CCCNC(=N)N)NC(=O)CNC(=O)[C@H](CCC(=O)O)NC(=O)[C@H](CC(C)C)NC(C)=O)C(C)C)C(=O)NC(C)(C)C(=O)NC(C)(C)C(=O)N[C@@H](CCC(=O)O)C(=O)NCC(=O)N[C@@H](CCSC)C(=O)N[C@@H](CO)C(=O)N[C@@H](CCCCN)C(=O)N[C@@H](Cc1c[nH]c2ccccc12)C(=O)N[C@@H](CO)C(=O)N[C@@H](CCCCN)C(=O)N[C@@H](CCCNC(=N)N)C(=O)N[C@@H](CCCCN)C(=O)N[C@@H](CCCCN)C(N)=O
B6: SEQ ID NO: 16 (peptide)
peptide: Ac-LEGREKVRAAI[Aib][Aib]EGMSTWSKRKK-NH2
SMILES: CC[C@H](C)[C@H](NC(=O)[C@H](C)NC(=O)[C@H](C)NC(=O)[C@H](CCCNC(=N)N)NC(=O)[C@@H](NC(=O)[C@H](CCCCN)NC(=O)[C@H](CCC(=O)O)NC(=O)[C@H](CCCNC(=N)N)NC(=O)CNC(=O)[C@H](CCC(=O)O)NC(=O)[C@H](CC(C)C)NC(C)=O)C(C)C)C(=O)NC(C)(C)C(=O)NC(C)(C)C(=O)N[C@@H](CCC(=O)O)C(=O)NCC(=O)N[C@@H](CCSC)C(=O)N[C@@H](CO)C(=O)N[C@H](C(=O)N[C@@H](Cc1c[nH]c2ccccc12)C(=O)N[C@@H](CO)C(=O)N[C@@H](CCCCN)C(=O)N[C@@H](CCCNC(=N)N)C(=O)N[C@@H](CCCCN)C(=O)N[C@@H](CCCCN)C(N)=O)[C@@H](C)O
B7: SEQ ID NO: 17 (peptide)
peptide: Ac-LEGREKVRAAI[Aib][Aib]EG[Nle]STWS[Aib]RKK-NH2
SMILES: CCCC[C@H](NC(=O)CNC(=O)[C@H](CCC(=O)O)NC(=O)C(C)(C)NC(=O)C(C)(C)NC(=O)[C@@H](NC(=O)[C@H](C)NC(=O)[C@H](C)NC(=O)[C@H](CCCNC(=N)N)NC(=O)[C@@H](NC(=O)[C@H](CCCCN)NC(=O)[C@H](CCC(=O)O)NC(=O)[C@H](CCCNC(=N)N)NC(=O)CNC(=O)[C@H](CCC(=O)O)NC(=O)[C@H](CC(C)C)NC(C)=O)C(C)C)[C@@H](C)CC)C(=O)N[C@@H](CO)C(=O)N[C@H](C(=O)N[C@@H](Cc1c[nH]c2ccccc12)C(=O)N[C@@H](CO)C(=O)NC(C)(C)C(=O)N[C@@H](CCCNC(=N)N)C(=O)N[C@@H](CCCCN)C(=O)N[C@@H](CCCCN)C(N)=O)[C@@H](C)O
B8: SEQ ID NO: 18 (peptide)
peptide: Ac-LEGREKVRAAI[Aib][Aib]EGMSKWS[Aib]RK-NH2
SMILES: CC[C@H](C)[C@H](NC(=O)[C@H](C)NC(=O)[C@H](C)NC(=O)[C@H](CCCNC(=N)N)NC(=O)[C@@H](NC(=O)[C@H](CCCCN)NC(=O)[C@H](CCC(=O)O)NC(=O)[C@H](CCCNC(=N)N)NC(=O)CNC(=O)[C@H](CCC(=O)O)NC(=O)[C@H](CC(C)C)NC(C)=O)C(C)C)C(=O)NC(C)(C)C(=O)NC(C)(C)C(=O)N[C@@H](CCC(=O)O)C(=O)NCC(=O)N[C@@H](CCSC)C(=O)N[C@@H](CO)C(=O)N[C@@H](CCCCN)C(=O)N[C@@H](Cc1c[nH]c2ccccc12)C(=O)N[C@@H](CO)C(=O)NC(C)(C)C(=O)N[C@@H](CCCNC(=N)N)C(=O)N[C@@H](CCCCN)C(N)=O
B9: SEQ ID NO: 19 (peptide)
peptide: Ac-LEGREKVRA[Aib]I[Aib][Aib]EG[Nle]STWSKRKK-NH2
SMILES: CCCC[C@H](NC(=O)CNC(=O)[C@H](CCC(=O)O)NC(=O)C(C)(C)NC(=O)C(C)(C)NC(=O)[C@@H](NC(=O)C(C)(C)NC(=O)[C@H](C)NC(=O)[C@H](CCCNC(=N)N)NC(=O)[C@@H](NC(=O)[C@H](CCCCN)NC(=O)[C@H](CCC(=O)O)NC(=O)[C@H](CCCNC(=N)N)NC(=O)CNC(=O)[C@H](CCC(=O)O)NC(=O)[C@H](CC(C)C)NC(C)=O)C(C)C)[C@@H](C)CC)C(=O)N[C@@H](CO)C(=O)N[C@H](C(=O)N[C@@H](Cc1c[nH]c2ccccc12)C(=O)N[C@@H](CO)C(=O)N[C@@H](CCCCN)C(=O)N[C@@H](CCCNC(=N)N)C(=O)N[C@@H](CCCCN)C(=O)N[C@@H](CCCCN)C(N)=O)[C@@H](C)O
B10: SEQ ID NO: 20 (peptide)
peptide: Ac-LEGREKVRA[Aib]I[Aib][Aib]EG[Nle]STWS[αMeK]RKK-NH2
SMILES: CCCC[C@H](NC(=O)CNC(=O)[C@H](CCC(=O)O)NC(=O)C(C)(C)NC(=O)C(C)(C)NC(=O)[C@@H](NC(=O)C(C)(C)NC(=O)[C@H](C)NC(=O)[C@H](CCCNC(=N)N)NC(=O)[C@@H](NC(=O)[C@H](CCCCN)NC(=O)[C@H](CCC(=O)O)NC(=O)[C@H](CCCNC(=N)N)NC(=O)CNC(=O)[C@H](CCC(=O)O)NC(=O)[C@H](CC(C)C)NC(C)=O)C(C)C)[C@@H](C)CC)C(=O)N[C@@H](CO)C(=O)N[C@H](C(=O)N[C@@H](Cc1c[nH]c2ccccc12)C(=O)N[C@@H](CO)C(=O)N[C@@](C)(CCCCN)C(=O)N[C@@H](CCCNC(=N)N)C(=O)N[C@@H](CCCCN)C(=O)N[C@@H](CCCCN)C(N)=O)[C@@H](C)O

target: T1, RXFP1 receptor (UniProt Q9HBX9 1-757, limits assumed); experiment: cell-based or functional assay
T1 sequence (looked up): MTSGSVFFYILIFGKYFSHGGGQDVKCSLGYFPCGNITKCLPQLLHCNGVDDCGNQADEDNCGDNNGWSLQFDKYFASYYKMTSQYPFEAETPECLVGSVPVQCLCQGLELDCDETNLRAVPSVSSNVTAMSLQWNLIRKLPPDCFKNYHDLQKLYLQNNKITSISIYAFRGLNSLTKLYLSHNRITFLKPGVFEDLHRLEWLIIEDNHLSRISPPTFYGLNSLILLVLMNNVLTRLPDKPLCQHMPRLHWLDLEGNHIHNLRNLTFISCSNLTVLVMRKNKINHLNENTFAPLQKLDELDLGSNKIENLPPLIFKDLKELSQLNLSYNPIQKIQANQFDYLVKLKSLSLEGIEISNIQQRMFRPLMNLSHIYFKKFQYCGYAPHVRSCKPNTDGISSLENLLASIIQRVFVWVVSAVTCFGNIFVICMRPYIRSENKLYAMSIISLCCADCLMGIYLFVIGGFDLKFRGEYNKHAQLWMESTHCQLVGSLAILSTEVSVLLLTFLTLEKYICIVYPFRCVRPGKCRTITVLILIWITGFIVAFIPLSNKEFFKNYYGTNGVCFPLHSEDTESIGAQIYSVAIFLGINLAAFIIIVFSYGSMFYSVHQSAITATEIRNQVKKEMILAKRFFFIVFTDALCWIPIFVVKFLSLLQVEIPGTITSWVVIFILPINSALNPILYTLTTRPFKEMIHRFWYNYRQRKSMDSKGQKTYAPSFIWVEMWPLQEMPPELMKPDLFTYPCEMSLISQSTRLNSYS

B1 and B2 are within 1.5-fold of each other in “cAMP assay in OVCAR 5 cells EC50” value: 28.2 nM for the first, 19.2 nM for the second.

B3 and B4 are within 1.5-fold of each other in “cAMP assay in OVCAR 5 cells EC50” value: 32.8 nM for the first, 24.4 nM for the second.

Compared with B5, B6 is 3.1-fold lower in “cAMP assay in OVCAR 5 cells EC50” value: 14.4 nM for the first, 4.6 nM for the second.

Compared with B7, B8 is 4.5-fold higher in “cAMP assay in OVCAR 5 cells EC50” value: 11.6 nM for the first, 52.1 nM for the second.

Compared with B9, B10 is 10-fold lower in “cAMP assay in OVCAR 5 cells EC50” value: 18.2 nM for the first, 1.8 nM for the second.

Going from B1 to B2, the “cAMP assay in OVCAR 5 cells Emax” value falls from 99% to 97%.

Compared with B3, B4 is lower in “cAMP assay in OVCAR 5 cells Emax” value: 106% for the first, 104% for the second.

Compared with B5, B6 is higher in “cAMP assay in OVCAR 5 cells Emax” value: 99% for the first, 101% for the second.

Compared with B7, B8 is higher in “cAMP assay in OVCAR 5 cells Emax” value: 90% for the first, 104% for the second.

B9 and B10 are the same in “cAMP assay in OVCAR 5 cells Emax” value: 97% for the first, 97% for the second.
